The target of test [1] is Lactoferrin from human neutrophils (human). In words: SPR. For orientation: SPR reads the build-up and loss of mass on a sensor chip optically.
A further test concerns the target CRD from SRCL (UniProt Q5KU26). Briefly: radioligand binding.
Chain of UniProt Q5KU26 (Q5KU26 whole entry): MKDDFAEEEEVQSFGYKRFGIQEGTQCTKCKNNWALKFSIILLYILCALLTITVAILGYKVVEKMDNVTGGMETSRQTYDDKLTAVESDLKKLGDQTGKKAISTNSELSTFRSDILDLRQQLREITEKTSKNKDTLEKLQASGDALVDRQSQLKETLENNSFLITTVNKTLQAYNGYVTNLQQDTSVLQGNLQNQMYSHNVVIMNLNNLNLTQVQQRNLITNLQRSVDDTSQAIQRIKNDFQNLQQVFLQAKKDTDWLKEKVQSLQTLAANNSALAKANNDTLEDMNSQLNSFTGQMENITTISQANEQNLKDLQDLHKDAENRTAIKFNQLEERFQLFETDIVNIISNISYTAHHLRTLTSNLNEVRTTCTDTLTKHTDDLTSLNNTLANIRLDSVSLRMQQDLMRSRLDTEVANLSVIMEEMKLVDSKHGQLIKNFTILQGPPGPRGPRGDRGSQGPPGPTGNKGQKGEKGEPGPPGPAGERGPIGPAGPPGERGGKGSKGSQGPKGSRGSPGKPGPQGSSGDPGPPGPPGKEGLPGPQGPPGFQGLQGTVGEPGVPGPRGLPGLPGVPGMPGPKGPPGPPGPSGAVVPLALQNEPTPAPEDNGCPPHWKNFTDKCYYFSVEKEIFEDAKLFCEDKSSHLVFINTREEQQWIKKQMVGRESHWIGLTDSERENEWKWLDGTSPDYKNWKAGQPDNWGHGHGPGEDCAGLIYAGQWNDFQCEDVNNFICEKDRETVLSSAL

The term Kd denotes the constant that tells how readily two partners part at equilibrium. Consider “CRD from SRCL (from UniProt Q5KU26 1-742) (domain or fragment)”, for which the Kd in test [1] turned out to be 4.7 µM.

One may read the Ki as a dissociation constant, usually derived from enzyme kinetics or from competition with a known ligand. Higher therefore signals weaker binding. For “Lactoferrin from human neutrophils (natural protein)”, in the test with CRD from SRCL, the Ki turned out to be 6.1 µM. This lies in the single-digit micromolar range.

Values taken from paper PMC3129213.
